Reference: PMC13083842 (Communications Biology, 2026)

B1: tocilizumab-TGN 1:25 (antibody, V domains shown)
VH: QVQLQESGPGLVRPSQTLSLTCTVSGYSITSDHAWSWVRQPPGRGLEWIGYISYSGITTYNPSLKSRVTMLRDTSKNQFSLRLSSVTAADTAVYYCARSLARTTAMDYWGQGSLVTVSS
VL: DIQMTQSPSSLSASVGDRVTITCRASQDISSYLNWYQQKPGKAPKLLIYYTSRLHSGVPSRFSGSGSGTDFTFTISSLQPEDIATYYCQQGNTLPYTFGQGTKVEIK
notes: as the heavy chain of m6; as the light chain of m6; Heterogeneous conjugate; See m6 for the DrugBank ids; also called the 1:25 variant; source: HEK293T, transfected, purified (Protein A, SEC), then conjugated with Tris-GalNAc-PEG5-sulfo-NHS ester at 1:25
B2: siltuximab (antibody, V domains shown)
VH: EVQLVESGGKLLKPGGSLKLSCAASGFTFSSFAMSWFRQSPEKRLEWVAEISSGGSYTYYPDTVTGRFTISRDNAKNTLYLEMSSLRSEDTAMYYCARGLWGYYALDYWGQGTSVTVSS
VL: QIVLIQSPAIMSASPGEKVTMTCSASSSVSYMYWYQQKPGSSPRLLIYDTSNLASGVPVRFSGSGSGTSYSLTISRMEAEDAATYYCQQWSGYPYTFGGGTKLEIK
notes: heavy chain of siltuximab, chimeric (human-murine) anti-IL-6 antibody; light chain of siltuximab; Full-length IgG; also called wildtype siltuximab; unmodified siltuximab; source: HEK293T, transfected, purified from supernatant (Protein A, SEC); copies: 2 + 2
B3: siltuximab-TGN 1:5 (antibody, V domains shown)
VH: B2 VH
VL: B2 VL
notes: as the heavy chain of m1; as the light chain of m1; Heterogeneous conjugate; See m1 for the DrugBank ids; also called TGN-modified siltuximab variant 1:5; source: HEK293T, transfected, purified (Protein A, SEC), then conjugated with Tris-GalNAc-PEG5-sulfo-NHS ester at 1:5; copies: 2 + 2
B4: siltuximab-TGN 1:10 (antibody, V domains shown)
VH: B2 VH
VL: B2 VL
notes: as the heavy chain of m1; as the light chain of m1; Heterogeneous conjugate; See m1 for the DrugBank ids; also called TGN-modified siltuximab variant 1:10; source: HEK293T, transfected, purified (Protein A, SEC), then conjugated with Tris-GalNAc-PEG5-sulfo-NHS ester at 1:10; copies: 2 + 2
B5: siltuximab-TGN 1:25 (antibody, V domains shown)
VH: B2 VH
VL: B2 VL
notes: as the heavy chain of m1; as the light chain of m1; Heterogeneous conjugate; See m1 for the DrugBank ids; also called the 1:25 variant; source: HEK293T, transfected, purified (Protein A, SEC), then conjugated with Tris-GalNAc-PEG5-sulfo-NHS ester at 1:25; copies: 2 + 2
B6: siltuximab-TGN 1:1 (antibody, V domains shown)
VH: B2 VH
VL: B2 VL
notes: as the heavy chain of m1; as the light chain of m1; Heterogeneous conjugate; See m1 for the DrugBank ids; also called TGN-modified siltuximab variant 1:1; source: HEK293T, transfected, purified (Protein A, SEC), then conjugated with Tris-GalNAc-PEG5-sulfo-NHS ester at 1:1; copies: 2 + 2

target: T1, soluble IL-6 receptor (sIL-6R) (human (from the printed accession …, UniProt P08887)); assay: SPR; IL-6R amine-coupled on a CM5 chip (Biacore T200); tocilizumab variants as analytes, multi-cycle kinetics, 0.39 to 100 nM; global fit, 1:1 model; conditions: both partners purified
T1 construct: interleukin-6 receptor (IL-6R), soluble variant, residues 20-355, UniProt P08887; Two versions were made: 1; C-terminal His9-Tag; 2; C-terminal Twin-Strep-Tag, 3xGS-Linker and TEV cleavage site; Only the ELISA on sASGPR (anti-His-HRP detection) tells that the His9 version was used; Strongly and heterogeneously glycosylated; also called wild-type sIL-6R; unmodified sIL-6R; source: Expi293F, …

Binder | fold weaker affinity than wildtype tocilizumab [fold]
B1 | ≤ 5

target: T2, interleukin-6 (IL-6) (human, UniProt P05231); assay: SPR; IL-6 amine-coupled on a CM5 chip (Biacore T200); analytes in multi-cycle kinetics, 0.39 to 100 nM, 30 µL/min, 180 s association, 1200 s dissociation, HBS-N + 10 mM CaCl2; global fit, 1:1 model; where koff was below the detection limit KD was estimated from kon and the theoretical maximum koff; conditions: both partners purified
T2 construct: interleukin-6, human; A biotinylated IL-6 was used in the cell uptake assays; for SPR and ELISA the IL-6 was amine-coupled or coated
T2 sequence (P05231 30-212): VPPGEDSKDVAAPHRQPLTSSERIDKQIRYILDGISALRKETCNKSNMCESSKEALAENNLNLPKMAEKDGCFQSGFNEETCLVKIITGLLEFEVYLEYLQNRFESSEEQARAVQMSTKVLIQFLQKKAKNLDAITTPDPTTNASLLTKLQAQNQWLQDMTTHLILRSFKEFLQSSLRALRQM

Binder | Kd [nM] | koff [s⁻¹] | kon [M⁻¹ s⁻¹]
B2 | < 0.045 | < 1e-05 | 445000
B3 | < 0.045 | < 1e-05 | –
B4 | < 0.045 | < 1e-05 | –
B5 | < 0.045 | < 1e-05 | 221000
B6 | < 0.045 | < 1e-05 | –
